Experimental data reported in the supplement of paper PMC10126150.
± gives the standard deviation of the averaged measurements.

Tested on: ATP
Test: switch fluorescence ratio, 500 uM ATP over buffer (Cy3 cluster intensity, sum of 5 cycles each) (fold (ratio)); higher = stronger signal-on switching upon ATP binding; sequences stand for … in TCGTCGGCAGCGTCAGATGTGTATAAGAGACAGTTTTTTTTTTTTTTTTTTTTTTTTT…TC
Conditions: aptamer strand: ATP DNA aptamer (quencher-CACCTGGGGGAGTATTGCGGAGGAAGG + anchor), 100 nM annealed; ATP concentration: 500 uM
Outline: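 Between each of five buffer/ATP cycles, the flow-cell was stripped with NaOH and re-annealed. Each cycle imaged Cy3-labelled switching-strand clusters, annealed to 100 nM quencher-labelled ATP aptamer on a modified Illumina MiSeq flow-cell, first in selection buffer and then after 15 min with 500 uM ATP at 22 °C. The fluorescence ratio is summed target-cycle over summed buffer-cycle Cy3 intensity per cluster, averaged per switch-domain sequence, with clusters outside 100-1000 RFU excluded.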
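Also: ATP exposure 15 min at 22 °C before imaging.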

| Sequence | switch fluorescence ratio |
| --- | --- |
| AAGGTTATTG | 1.026 ± 0.0088 |
| CGGGGGGATA | 1.07 ± 0.15 |
| AAGGCGAGCT | 0.992 ± 0.01 |
| CTCTGTTGTG | 0.961 ± 0.012 |
| TCAAGGCCGG | 1.02 ± 0.035 |
| CGGTGAAATG | 0.975 ± 0.017 |
| TAAATTAAGT | 1.03 ± 0.029 |
| GGTTTCTCCG | 1.46 ± 0.017 |
| TGGTTTGGGG | 0.974 ± 0.021 |
| CCTGCAAACA | 2.22 ± 0.17 |
| ATTTAGGTCA | 0.983 ± 0.011 |
| TGTGGATTAT | 0.988 ± 0.011 |
| CTGAGGGGTG | 1.01 ± 0.037 |
| CGGCGCCCA | 0.997 ± 0.01 |
| CATATCGAAA | 1.013 ± 0.0033 |
| AATCGGTCGT | 0.994 ± 0.031 |
| GTTCTTTTTC | 0.978 ± 0.019 |
| GGGAACGATC | 1.003 ± 0.0083 |
| AGTGGTGGGC | 0.979 ± 0.056 |
| CGAAATCATC | 1.063 ± 0.0053 |
| GAGTTTATGG | 0.984 ± 0.029 |
| TCAATGCGCC | 1.46 ± 0.4 |
| CTATGAGTGA | 1.01 ± 0.018 |
| CTAGAAGCGG | 0.983 ± 0.013 |
| TTAATGGGA | 0.995 ± 0.011 |

| Sequence | switch fluorescence ratio |
| --- | --- |
| GACAGGGCGG | 0.983 ± 0.049 |
| TTACGGCCGA | 1.02 ± 0.026 |
| CAAAATATAT | 1.06 ± 0.042 |
| AGGGTATTCG | 0.9981 ± 0.0049 |
| AATGGGGGGC | 1 ± 0.041 |
| TGGGTGTTGC | 0.941 ± 0.083 |
| GTTGTTTAAT | 1.006 ± 0.0081 |
| GAAATCAGGT | 1.02 ± 0.019 |
| TATTGGAGTG | 0.966 ± 0.084 |
| TTCGGAGGGA | 2.2 ± 1.5 |
| CGATTCTTGG | 0.99932 ± 5.1e-05 |
| ATTCACACGC | 1.06 ± 0.017 |
| GGGGCACTGT | 1.01 ± 0.013 |
| TAATTTATTT | 1.03 ± 0.029 |
| CATGGGAAGG | 0.997 ± 0.034 |
| CGTTTTTGGG | 0.985 ± 0.036 |
| TTTGTCATGG | 1.04 ± 0.037 |
| GAGGGGACTT | 1.09 ± 0.13 |
| CGAGAGGGGA | 1.03 ± 0.02 |
| ATGGCAAAGA | 0.9828 ± 0.0096 |
| GGCCGGTGGA | 1.02 ± 0.038 |
| GAGCATATTG | 1.03 ± 0.03 |
| GAGGGTAGCG | 0.96 ± 0.059 |
| ATATAAGGGT | 1.02 ± 0.015 |
| AGTGTCAGAA | 0.9896 ± 0.0084 |

| Sequence | switch fluorescence ratio |
| --- | --- |
| GATCAACTGT | 1 ± 0.032 |
| GGTTTTGATC | 0.972 ± 0.047 |
| GGGCATGTAG | 0.996 ± 0.058 |
| TTAAATTTCT | 1.02 ± 0.0034 |
| ATTGTTGGTT | 0.974 ± 0.019 |
| CCGCGGGGTG | 2.2 ± 0.77 |
| TTTTTGGATT | 1 ± 0.032 |
| AGCAGGGTTG | 1.029 ± 0.01 |
| TTGTTAGGCC | 0.995 ± 0.021 |
| GAGCAGCTCG | 0.9995 ± 0.0059 |
| CGATACCGTG | 1.007 ± 0.0044 |
| TCCTGCGCGT | 4.52 ± 0.71 |
| TGTTAGCCTT | 1.04 ± 0.017 |
| TATTAAGG | 1.01 ± 0.011 |
| ATCGGAAGAA | 1.01 ± 0.017 |
| TAGGTTACGG | 0.984 ± 0.024 |
| GGACTAGGTG | 1.16 ± 0.044 |
| AACCACTGGG | 1.17 ± 0.13 |
| ACAAGTTGGA | 1.11 ± 0.061 |
| TTCACATTGG | 1.01 ± 0.03 |
| TCAGGGTGCT | 1.1 ± 0.029 |
| TGAGCGGAGG | 1.01 ± 0.002 |
| TTGTTTGGCC | 1.05 ± 0.079 |
| CATGAGGTTA | 0.9855 ± 0.0094 |
| TAGTCAGGGG | 0.9852 ± 0.0041 |

| Sequence | switch fluorescence ratio |
| --- | --- |
| GATAGTTTTG | 0.9856 ± 0.0089 |
| CAGTAGAATT | 1.02 ± 0.023 |
| CCTCGCTGAG | 3.48 ± 0.98 |
| TTCTTGATAA | 1.01 ± 0.013 |
| ACTGATGGGT | 1 ± 0.013 |
| AGAAAGGTTG | 0.984 ± 0.019 |
| ACTAAGGATT | 1.02 ± 0.018 |
| TACAGCAGTG | 1.02 ± 0.023 |
| AATGGGGACT | 1 ± 0.012 |
| CGATAAGCGG | 1.02 ± 0.035 |
| GGATTAGCTT | 1.01 ± 0.051 |
| ACTTGGACTG | 1.03 ± 0.042 |
| GAACCAGGGG | 1.27 ± 0.088 |
| TGTTGGAAGG | 1.01 ± 0.014 |
| TATGGAATGG | 0.997 ± 0.046 |
| AACTATTGAA | 1.003 ± 0.0077 |
| GGACCTGGCG | 1.08 ± 0.15 |
| TAATATGGTT | 1.03 ± 0.055 |
| TGATCCAGGG | 0.9873 ± 0.0081 |
| TTCAATTTCC | 1.01 ± 0.028 |
| AGTGTTCGTC | 1.05 ± 0.011 |
| TTCTAACTGG | 0.995 ± 0.013 |
| TTGAATAGTG | 0.966 ± 0.029 |
| ACATCGTCAT | 1.01 ± 0.02 |
| TGACATCATT | 1.063 ± 0.002 |

| Sequence | switch fluorescence ratio |
| --- | --- |
| GCAGAGGGC | 1 ± 0.012 |
| AGGATTAGGA | 1.01 ± 0.062 |
| GACGGTTAAA | 1.12 ± 0.11 |
| GGGGAAAAGC | 1.04 ± 0.014 |
| ACCGGAGTCA | 1.22 ± 0.058 |
| GTTATTATTA | 0.993 ± 0.019 |
| GGGATGGTGT | 0.962 ± 0.016 |
| TTCCTCTGTT | 1.37 ± 0.26 |
| CGGGGCGAGG | 1 ± 0.017 |
| TTAATTTGAG | 0.986 ± 0.03 |
| ATGGGGGAGG | 1.009 ± 0.0031 |
| GGGGTGATCG | 0.9842 ± 0.0077 |
| TTTGTGCGTC | 0.977 ± 0.055 |
| TGTCATTGGA | 0.989 ± 0.017 |
| ATCAAACGAG | 1.006 ± 0.0073 |
| GGTTAAAAGG | 1 ± 0.032 |
| CGTTGCGAAA | 1.02 ± 0.031 |
| AAGGAAATGG | 1.01 ± 0.035 |
| TAAAGGGAAA | 1.26 ± 0.37 |
| TGAGTAATAG | 2.01 ± 0.87 |
| AGGTCGGTCT | 0.995 ± 0.058 |
| CTCGTGTTCG | 0.984 ± 0.013 |
| CATTCGTAGG | 0.965 ± 0.042 |
| CAGGGGTTA | 1.03 ± 0.044 |
| GGCATTGGAT | 0.962 ± 0.034 |

| Sequence | switch fluorescence ratio |
| --- | --- |
| TGCTCCAAGT | 1.03 ± 0.013 |
| TGACACATAC | 2.24 ± 0.033 |
| TTCTGGATCT | 0.996 ± 0.044 |
| GCCAGCAGCT | 0.967 ± 0.014 |
| ACGAGGCTTC | 1.294 ± 0.0082 |
| GCATGAGGGT | 1.03 ± 0.072 |
| CTGGTGGGGG | 0.9702 ± 0.0027 |
| GATTGGCTGT | 0.966 ± 0.029 |
| GAATATTTAA | 0.998 ± 0.014 |
| AGCACTCTAT | 1.04 ± 0.024 |
| TTTGGACGGC | 1.04 ± 0.065 |
| GGACTGGATG | 1 ± 0.031 |
| TTAGTGTTTT | 0.98 ± 0.05 |
| AGTAAAGTCT | 1.04 ± 0.035 |
| GCAATTTAGA | 1.02 ± 0.016 |
| ACGAGCGCGT | 1.02 ± 0.027 |
| CGAATCTTTT | 1.013 ± 0.0025 |
| AGGAGGTTTG | 0.97 ± 0.015 |
| GCCAAAACCT | 2 ± 0.76 |
| GAGCATGAAA | 0.974 ± 0.04 |
| CGAAAAATAG | 0.985 ± 0.043 |
| CGGGACTGCT | 0.9825 ± 0.0052 |
| AAAACTTCCT | 2.5 ± 0.67 |
| TTTCTTTTCT | 1.02 ± 0.032 |
| TACTTTTGCT | 0.9669 ± 0.0014 |

| Sequence | switch fluorescence ratio |
| --- | --- |
| TAGGGGGGAG | 0.981 ± 0.024 |
| GCGCGTGCAC | 0.988 ± 0.042 |
| ATTATTAGAA | 0.9912 ± 0.0034 |
| AATTGTATCT | 1.01 ± 0.063 |
| GGTGGAAGGA | 1.02 ± 0.029 |
| GAAAGGGTGG | 0.9746 ± 0.0081 |
| CTTGGTTCGA | 0.978 ± 0.026 |
| CCCGGGTCGC | 1.05 ± 0.012 |
| ATTGTTATCT | 1 ± 0.013 |
| TGGGTAGGTT | 1.06 ± 0.035 |
| GAATCAGGG | 0.972 ± 0.034 |
| GCATATCCGG | 1.02 ± 0.011 |
| CAGTTCTCGT | 0.969 ± 0.018 |
| AAATGTAAAA | 1.01 ± 0.042 |
| TGGTTAAAGG | 0.978 ± 0.024 |
| TTGGGACTGT | 0.978 ± 0.054 |
| TCATAGTACG | 1.02 ± 0.043 |
| GGCTTGCGGT | 0.9974 ± 0.004 |
| CGGGGGTGGC | 0.984 ± 0.029 |
| GTATTTTTTT | 0.967 ± 0.013 |
| TTTGGTTGGA | 0.992 ± 0.038 |
| CCTGGGACCA | 0.975 ± 0.0064 |
| ATTATGGCGC | 0.967 ± 0.0049 |
| TTCGTTTTCT | 1 ± 0.039 |
| CATTGAGGGC | 0.987 ± 0.021 |

| Sequence | switch fluorescence ratio |
| --- | --- |
| TGTGTTGGGT | 0.98 ± 0.015 |
| CAGGGGAGGT | 1.02 ± 0.014 |
| AGAAATTGTT | 0.999 ± 0.047 |
| GTTTAGGGGT | 1.03 ± 0.081 |
| ATGTTTTTCT | 0.963 ± 0.0029 |
| AGTGTTCGCG | 1 ± 0.015 |
| CAGTGGGGCA | 1.03 ± 0.053 |
| AGAGTACGGC | 1.09 ± 0.017 |
| TAGTCATTAA | 1.002 ± 0.0028 |
| AAGTCGAGTG | 0.994 ± 0.075 |
| AAATTGTAAT | 1.02 ± 0.041 |
| TTATGACATT | 1.01 ± 0.044 |
| TTTTTCCGGT | 1.07 ± 0.13 |
| TTGTATGGG | 0.984 ± 0.015 |
| AAGTTTGTTG | 0.986 ± 0.023 |
| ACGCTCGACC | 1.75 ± 0.15 |
| CGAGTATGAA | 0.989 ± 0.06 |
| TTGGGTCAAC | 1.05 ± 0.014 |
| ACCCGCTTTT | 1.38 ± 0.31 |
| CATATTTGCC | 1.03 ± 0.059 |
| TAGGAGATGA | 1 ± 0.042 |
| TTTGTGTGGA | 1.03 ± 0.0059 |
| GGGTTTGGGA | 0.9899 ± 0.0088 |
| AGAGATAGGG | 1.01 ± 0.019 |
| GTGTGGGCTG | 1.0001 ± 0.0002 |
